Four molecules from patent US20150111246A1, “SITE-SPECIFIC ENZYMATIC MODIFICATION OF EXENDINS AND ANALOGS THEREOF” (priority 2012, published 2015) can be followed below.

Bridge positions count the residues as written; N and C are the ends. Peptide text beside a SMILES is read from it. * marks the point of attachment. NH(mPEG24) = COCCOCCOCCOCCOCCOCCOCCOCCOCCOCCOCCOCCOCCOCCOCCOCCOCCOCCOCCOCCOCCOCCOCCOCCN*

Experiment [1] has as its target T1, GLP-1 receptor (Rattus norvegicus, UniProt P32301).
T1 construct: endogenous in cells; host or cells: RINm5F cell membranes
T1 sequence (P32301 22-463): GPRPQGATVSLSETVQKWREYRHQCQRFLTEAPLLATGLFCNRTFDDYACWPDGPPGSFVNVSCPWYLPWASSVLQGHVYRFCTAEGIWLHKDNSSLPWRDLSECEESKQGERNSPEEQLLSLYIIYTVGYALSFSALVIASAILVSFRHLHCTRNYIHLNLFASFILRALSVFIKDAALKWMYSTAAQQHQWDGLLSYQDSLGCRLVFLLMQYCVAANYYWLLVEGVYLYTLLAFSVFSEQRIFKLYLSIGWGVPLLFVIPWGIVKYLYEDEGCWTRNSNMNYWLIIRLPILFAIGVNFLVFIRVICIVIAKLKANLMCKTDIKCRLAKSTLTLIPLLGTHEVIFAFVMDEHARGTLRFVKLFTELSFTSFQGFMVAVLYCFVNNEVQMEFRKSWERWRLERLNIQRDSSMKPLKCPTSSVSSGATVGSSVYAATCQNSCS
In words: GLP-1 receptor binding displacement assay. The following applies: text of Examples 6, 7, 12. The protocol: GLP-1 receptor binding and functional assays: GLP-1 receptor binding activity and affinity may be measured in any number of known methods. […] Reaction mixtures are filtered through glass filter pads presoaked with 0.3% PEI solution and rinsed with ice-cold phosphate buffered saline. Bound counts are determined using a scintillation counter. Binding affinities can be calculated using GraphPad Prism® software (GraphPad Software, Inc., San Diego, Calif.).

Experiment [2] concerns the target GLP-1 receptor (UniProt P32301). In words: cell-based or functional assay.
The target is the same in experiment [3]. In words: radioligand displacement, RINm5F cell membranes, [125I]GLP-1 (or exendin) tracer. (In general: Loss of bound radioactivity is the signal in a displacement assay; it reports binding, not function.)
A further experiment concerns the target T2, GLP-1 receptor, P32301.
T2 chain: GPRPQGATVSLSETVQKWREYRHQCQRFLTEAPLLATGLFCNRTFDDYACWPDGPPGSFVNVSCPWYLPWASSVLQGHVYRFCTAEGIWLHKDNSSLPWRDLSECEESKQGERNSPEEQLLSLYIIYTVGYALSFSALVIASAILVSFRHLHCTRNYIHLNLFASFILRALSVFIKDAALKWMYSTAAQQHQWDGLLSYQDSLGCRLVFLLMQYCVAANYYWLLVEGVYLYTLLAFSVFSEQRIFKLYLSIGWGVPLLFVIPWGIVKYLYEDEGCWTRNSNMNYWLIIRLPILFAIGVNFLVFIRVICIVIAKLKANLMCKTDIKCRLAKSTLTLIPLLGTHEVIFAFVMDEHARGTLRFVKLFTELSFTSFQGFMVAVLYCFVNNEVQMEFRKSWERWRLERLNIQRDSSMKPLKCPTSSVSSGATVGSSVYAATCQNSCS
Briefly: GLP-1 binding assay (radioligand displacement), as the filing names it.

In experiment [4] the target is T3, GLP-1 receptor (UniProt P32301 22-463, limits assumed).
T3 sequence (looked up): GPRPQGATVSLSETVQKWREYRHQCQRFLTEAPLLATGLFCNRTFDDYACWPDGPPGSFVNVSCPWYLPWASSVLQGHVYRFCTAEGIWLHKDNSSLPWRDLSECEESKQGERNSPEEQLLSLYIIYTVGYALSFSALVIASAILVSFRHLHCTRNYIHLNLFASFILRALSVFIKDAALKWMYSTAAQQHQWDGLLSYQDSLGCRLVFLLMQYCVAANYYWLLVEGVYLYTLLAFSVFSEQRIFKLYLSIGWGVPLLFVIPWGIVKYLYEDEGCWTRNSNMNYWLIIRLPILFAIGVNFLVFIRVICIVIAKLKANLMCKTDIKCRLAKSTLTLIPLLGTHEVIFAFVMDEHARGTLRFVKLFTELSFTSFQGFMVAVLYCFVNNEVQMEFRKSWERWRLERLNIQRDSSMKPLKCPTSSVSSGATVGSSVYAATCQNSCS
In words: cell-based or functional assay.

The term IC50 denotes the concentration needed to halve the response being measured. A low value points to inhibition by little substance. In turn, `CC[C@H](C)[C@H](NC(=O)[C@@H]1CCCN1C(=O)CNC(=O)[C@H](Cc1ccccc1)NC(=O)[C@H](CC(N)=O)NC(=O)[C@H](CC(N)=O)NC(=O)[C@H](CO)NC(=O)[C@H](CO)NC(=O)[C@H](Cc1c[nH]cn1)NC(=O)[C@@H](NC(=O)[C@H](CC(C)C)NC(=O)[C@H](Cc1ccccc1)NC(=O)[C@H](CC(N)=O)NC(=O)[C@H](C)NC(=O)[C@H](CC(C)C)NC(=O)[C@H](CCCNC(=N)N)NC(=O)[C@H](CCC(=O)NCCOCCOCCOCCOCCOCCOCCOCCOCCOCCOCCOCCOCCOCCOCCOCCOCCOCCOCCOCCOCCOCCOCCOCCOC)NC(=O)[C@@H](NC(=O)[C@H](C)NC(=O)[C@@H]1CSSC[C@H](NC(=O)[C@@H](N)CCCCN)C(=O)N[C@@H](CC(N)=O)C(=O)N[C@@H]([C@@H](C)O)C(=O)N[C@@H](C)C(=O)N[C@@H]([C@@H](C)O)C(=O)N1)[C@@H](C)O)C(C)C)C(=O)N[C@@H](CC(C)C)C(=O)N1CCC[C@H]1C(=O)N1CCC[C@H]1C(=O)N[C@H](C(=O)N[C@@H](CC(N)=O)C(=O)N[C@H](C(=O)NCC(=O)N[C@@H](CO)C(=O)N[C@@H](CC(N)=O)C(=O)N[C@H](C(=O)N[C@@H](Cc1ccc(O)cc1)C(N)=O)[C@@H](C)O)C(C)C)[C@@H](C)O` [Example 12] (H-KCNTATCATE(NH(mPEG24))RLANFLVHSSNNFGPILPPTNVGSNTY-NH2; disulfide 2-7; N-terminus and C-terminus assumed) displayed an IC50 at GLP-1 receptor [1] of 80 nM.

Take Exendin-4 (peptide): the GLP-1 Function ED50 in the experiment with GLP-1 receptor [2] came out at 0.003 nM. The IC50 with GLP-1 receptor [3] was 0.333 nM.

B1: Pramlintide pegylated with m-dPEG24 amine at the glutamine at position 10 (peptide)
peptide: KCNTATCATQRLANFLVHSSNNFGPILPPTNVGSNTY
modifications: not checked
Consider B1, for which the IC50 with GLP-1 receptor, P32301 stood at 80 nM.

B2: [des-^1H, ^2G(imidazoacetyl), ^13N, ^14L]-Exendin-4-^40Q biotin cadaverine amide adduct attached at ^40Q (MW 4564.46) (peptide)
peptide: GEGTFTSDLSKNLEEEAVRLFIEWLKNGGPSSGAPPPSQ
modifications: imidazoacetyl on Gly 2 in place of His 1; biotin cadaverine amide on the side chain of Gln 40
In the case of B2, the “EC50 in the GLP-1 functional assay” value in the experiment with GLP-1 receptor [4] was determined as 0.004 nM.
